In the supplement of paper PMC11246515:
± gives the standard deviation of the averaged measurements.

Test: total protein half-life in vivo (active degradation + dilution); higher = more stable protein
[1] = E. coli NCM3722 delta-clpP delta-lon delta-hslV, growth: N-lim chemostat, doubling time 6 h
[2] = E. coli NCM3722 delta-clpP, growth: N-lim chemostat, doubling time 6 h
[3] = E. coli NCM3722 delta-hslV, growth: N-lim chemostat, doubling time 6 h
[4] = E. coli NCM3722 delta-lon, growth: N-lim chemostat, doubling time 6 h
[5] = E. coli NCM3722 delta-smpB, growth: N-lim chemostat, doubling time 6 h
[6] = wild type E. coli NCM3722, growth: C-lim chemostat, doubling time 3 h
[7] = wild type E. coli NCM3722, growth: C-lim chemostat, doubling time 6 h
[8] = wild type E. coli NCM3722, growth: C-lim chemostat, doubling time 12 h
[9] = wild type E. coli NCM3722, growth: N-lim chemostat, doubling time 6 h
[10] = wild type E. coli NCM3722, growth: N-lim chemostat, doubling time 12 h
[11] = wild type E. coli NCM3722, growth: P-lim chemostat, doubling time 6 h
[12] = wild type E. coli NCM3722, growth: P-lim chemostat, doubling time 12 h

Sequence | total protein half-life in vivo [1] | total protein half-life in vivo [2] | total protein half-life in vivo [3] | total protein half-life in vivo [4] | total protein half-life in vivo [5] | total protein half-life in vivo [6] | total protein half-life in vivo [7] | total protein half-life in vivo [8] | total protein half-life in vivo [9] | total protein half-life in vivo [10] | total protein half-life in vivo [11] | total protein half-life in vivo [12]
MRHSLPYRMLRKRPMKLSTTVILMVSAVLFSVLLVVHLIYFSQISDMTRDGLANKALAVARTLADSPEIRQGLQKKPQESGIQAIAEAVRKRNDLLFIVVTDMQSLRYSHPEAQRIGQPFKGDDILKALNGEENVAINRGFLAQALRVFTPIYDENHKQIGVVAIGLELSRVTQQINDSRWSIIWSVLFGMLVGLIGTCILVKVLKKILFGLEPYEISTLFEQRQAMLQSIKEGVVAVDDRGEVTLINDAAQELLNYRKSQDDEKLSTLSHSWSQVVDVSEVLRDGTPRRDEEITIKDRLLLINTVPVRSNGVIIGAISTFRDKTEVRKLMQRLDGLVNYADALRERSHEFMNKLHVILGLLHLKSYKQLEDYILKTANNYQEEIGSLLGKIKSPVIAGFLISKINRATDLGHTLILNSESQLPDSGSEDQVATLITTLGNLIENALEALGPEPGGEISVTLHYRHGWLHCEVNDDGPGIAPDKIDHIFDKGVSTKGSERGVGLALVKQQVENLGGSIAVESEPGIFTQFFVQIPWDGERSNR [P0AEC8] | 6.93 ± 0.11 h | 6.33 h | 5.74 ± 0.12 h | 5.85 ± 0.23 h | 5.57 ± 0.62 h | 2.98 ± 0.12 h | 5.883 ± 0.049 h | 11.9 ± 0.56 h | 6.25 ± 0.84 h | 9.85 ± 3 h | 6.32 h | 11.6 ± 0.52 h
MSAIDCIITAAGLSSRMGQWKMMLPWEQGTILDTSIKNALQFCSRIILVTGYRGNELHERYANQSNITIIHNPDYAQGLLTSVKAAVPAVQTEHCFLTHGDMPTLTIDIFRKIWSLRNDGAILPLHNGIPGHPILVSKPCLMQAIQRPNVTNMRQALLMGDHYSVEIENAEIILDIDTPDDFITAKERYTEI | 4.34 h | 3 ± 0.059 h |  |  | 1.3 h |  | 2.39 ± 0.048 h | 3.15 ± 0.1 h |  |  |  | 
MSMIKSYAAKEAGGELEVYEYDPGELRPQDVEVQVDYCGICHSDLSMIDNEWGFSQYPLVAGHEVIGRVVALGSAAQDKGLQVGQRVGIGWTARSCGHCDACISGNQINCEQGAVPTIMNRGGFAEKLRADWQWVIPLPENIDIESAGPLLCGGITVFKPLLMHHITATSRVGVIGIGGLGHIAIKLLHAMGCEVTAFSSNPAKEQEVLAMGADKVVNSRDPQALKALAGQFDLIINTVNVSLDWQPYFEALTYGGNFHTVGAVLTPLSVPAFTLIAGDRSVSGSATGTPYELRKLMRFAARSKVAPTTELFPMSKINDAIQHVRDGKARYRVVLKADF | 5.793 ± 0.025 h | 5.68 ± 0.17 h |  | 5.65 ± 0.11 h | 5.22 ± 1.4 h | 2.17 ± 0.36 h | 6.43 ± 1.3 h | 11 ± 1.4 h | 5.42 ± 0.12 h | 10.8 ± 0.24 h | 5.84 ± 0.26 h | 11.9 ± 0.73 h
MSLLNVPAGKDLPEDIYVVIEIPANADPIKYEIDKESGALFVDRFMSTAMFYPCNYGYINHTLSLDGDPVDVLVPTPYPLQPGSVIRCRPVGVLKMTDEAGEDAKLVAVPHSKLSKEYDHIKDVNDLPELLKAQIAHFFEHYKDLEKGKWVKVEGWENAEAAKAEIVASFERAKNK [P0A7A9] | 5.91 ± 0.78 h | 4.83 ± 0.22 h | 5.09 ± 0.49 h | 6.36 ± 0.52 h | 5.358 ± 0.02 h | 3.48 ± 0.71 h | 5.73 ± 0.47 h | 10.6 ± 0.65 h | 4.34 ± 0.4 h | 8.63 ± 0.47 h | 5.65 ± 1.4 h | 14.4 ± 1.1 h
MNITPFPTLSPATIDAINVIGQWLAQDDFSGEVPYQADCVILAGNAVMPTIDAACKIARDQQIPLLISGGIGHSTTFLYSAIAQHPHYNTIRTTGRAEATILADIAHQFWHIPHEKIWIEDQSTNCGENARFSIALLNQAVERVHTAIVVQDPTMQRRTMATFRRMTGDNPDAPRWLSYPGFVPQLGNNADSVIFINQLQGLWPVERYLSLLTGELPRLRDDSDGYGPRGRDFIVHVDFPAEVIHAWQTLKHDAVLIEAMESRSLR | 5.66 ± 0.067 h | 4.38 ± 0.065 h | 3.92 ± 0.042 h | 4.66 ± 0.2 h | 3.96 ± 0.27 h | > 4 h | 5.74 ± 0.29 h | 10.9 ± 1.3 h | 4.35 ± 0.28 h | 6.81 ± 1.1 h | 6.023 ± 0.049 h | 11.4 ± 0.21 h
MPVLHNRISNDALKAKMLAESEPRTTISFYKYFHIADPKATRDALYQLFTALNVFGRVYLAHEGINAQISVPASNVETFRAQLYAFDPALEGLRLNIALDDDGKSFWVLRMKVRDRIVADGIDDPHFDASNVGEYLQAAEVNAMLDDPDALFIDMRNHYEYEVGHFENALEIPADTFREQLPKAVEMMQAHKDKKIVMYCTGGIRCEKASAWMKHNGFNKVWHIEGGIIEYARKAREQGLPVRFIGKNFVFDERMGERISDEIIAHCHQCGAPCDSHTNCKNDGCHLLFIQCPVCAEKYKGCCSEICCEESALPPEEQRRRRAGRENGNKIFNKSRGRLNTTLCIPDPTE | 5.01 ± 0.67 h | 0.746 ± 0.024 h | 0.396 h | 0.483 h | 0.56 h | 0.343 ± 0.0081 h | 0.308 h | 0.65 h |  | 0.808 h | 0.402 ± 0.34 h | 1.16 ± 1.1 h
MSIIKEFREFAMRGNVVDLAVGVIIGAAFGKIVSSLVADIIMPPLGLLIGGIDFKQFAVTLRDAQGDIPAVVMHYGVFIQNVFDFLIVAFAIFMAIKLINKLNRKKEEPAAAPAPTKEEVLLTEIRDLLKEQNNRS [P0A742] | 5.9 ± 0.17 h | 5.99 ± 0.24 h | 6.46 ± 0.16 h | 5.9 ± 0.71 h | 6.222 ± 0.036 h | 3.17 ± 0.14 h | 6.12 ± 0.27 h | 12.4 ± 1.9 h | 6.41 ± 0.12 h | 11.5 ± 2.5 h | 5.8 ± 0.23 h | 13.3 ± 1.1 h
